Each block holds one binder with its values, some of them ahead of it.
Target: T1, human IL-10 receptor (IL-10R) on T cells and B cells of human whole blood (human, UniProt Q13651 22-578; Q08334 20-325)
T1 sequence (looked up) 1: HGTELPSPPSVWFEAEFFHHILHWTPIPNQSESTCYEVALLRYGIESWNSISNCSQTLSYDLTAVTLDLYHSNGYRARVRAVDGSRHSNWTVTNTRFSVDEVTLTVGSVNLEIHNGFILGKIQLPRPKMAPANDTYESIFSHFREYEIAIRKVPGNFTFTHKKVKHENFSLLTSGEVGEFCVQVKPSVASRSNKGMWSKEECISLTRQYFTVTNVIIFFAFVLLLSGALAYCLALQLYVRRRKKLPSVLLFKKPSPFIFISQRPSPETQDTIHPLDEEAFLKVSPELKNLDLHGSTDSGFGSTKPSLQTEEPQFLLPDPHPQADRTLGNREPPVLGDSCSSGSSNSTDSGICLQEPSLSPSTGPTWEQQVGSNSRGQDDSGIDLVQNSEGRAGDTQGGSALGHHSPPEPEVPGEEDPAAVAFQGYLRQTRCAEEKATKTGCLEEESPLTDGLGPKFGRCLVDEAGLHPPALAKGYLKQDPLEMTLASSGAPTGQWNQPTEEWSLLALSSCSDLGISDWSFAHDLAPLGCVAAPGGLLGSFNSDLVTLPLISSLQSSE
T1 sequence (looked up) 2: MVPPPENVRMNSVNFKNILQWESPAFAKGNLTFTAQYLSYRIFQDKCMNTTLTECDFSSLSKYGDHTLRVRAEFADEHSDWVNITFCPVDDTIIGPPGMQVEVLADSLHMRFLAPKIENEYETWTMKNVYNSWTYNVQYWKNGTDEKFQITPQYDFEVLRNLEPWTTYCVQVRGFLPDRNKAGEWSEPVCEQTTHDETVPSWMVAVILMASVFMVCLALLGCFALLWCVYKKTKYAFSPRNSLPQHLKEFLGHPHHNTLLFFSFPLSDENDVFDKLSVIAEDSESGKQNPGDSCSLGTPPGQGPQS
Assay: cell-based or functional assay

STAT3 phosphorylation (pY705), flow cytometry, CD3+ T cells in human whole blood, EC50: 222 pM
STAT3 phosphorylation (pY705), flow cytometry, CD19+ B cells in human whole blood, EC50: 352 pM
B1: Fc-IL-10 (human IgG1.3f Fc domain - GGGGSSGGGGSGGGGSGGGGS linker - wildtype human IL-10) (Fc fusion)
chain: DKTHTCPPCPAPEAEGAPSVFLFPPKPKDTLMISRTPEVTCVVVDVSHEDPEVKFNWYVDGVEVHNAKTKPREEQYNSTYRVVSVLTVLHQDWLNGKEYKCKVSNKALPAPIEKTISKAKGQPREPQVYTLPPSREEMTKNQVSLTCLVKGFYPSDIAVEWESNGQPENNYKTTPPVLDSDGSFFLYSKLTVDKSRWQQGNVFSCSVMHEALHNHYTQKSLSLSPGGGGGSSGGGGSGGGGSGGGGSSPGQGTQSENSCTHFPGNLPNMLRDLRDAFSRVKTFFQMKDQLDNLLLKESLLEDFKGYLGCQALSEMIQFYLEEVMPQAENQDPDIKAHVNSLGENLKTLRLRLRRCHRFLPCENKSKAVEQVKNAFNKLQEKGIYKAMSEFDIFINYIEAYMTMKIRN

STAT3 phosphorylation (pY705), flow cytometry, CD3+ T cells in human whole blood, EC50: 47.7 pM
STAT3 phosphorylation (pY705), flow cytometry, CD19+ B cells in human whole blood, EC50: 116 pM
B2: wildtype human IL-10 (ligand)
chain: SPGQGTQSENSCTHFPGNLPNMLRDLRDAFSRVKTFFQMKDQLDNLLLKESLLEDFKGYLGCQALSEMIQFYLEEVMPQAENQDPDIKAHVNSLGENLKTLRLRLRRCHRFLPCENKSKAVEQVKNAFNKLQEKGIYKAMSEFDIFINYIEAYMTMKIRN

Reference: US20230087600A1 (Bristol-Myers Squibb, published 2023)
